Publication PMC8615521, “Mitochondria-Mediated Apoptosis of HCC Cells Triggered by Knockdown of Glutamate Dehydrogenase 1: Perspective for Its Inhibition through Quercetin and Permethylated Anigopreissin A” (Biomedicines, 2021)

System: O=C(O)CCC(=O)C(=O)O
Assay: purified protein
Details: NADH

GDH1 from bovine liver (glutamate dehydrogenase 1) (Bos taurus), sequence (chain, as listed by the source): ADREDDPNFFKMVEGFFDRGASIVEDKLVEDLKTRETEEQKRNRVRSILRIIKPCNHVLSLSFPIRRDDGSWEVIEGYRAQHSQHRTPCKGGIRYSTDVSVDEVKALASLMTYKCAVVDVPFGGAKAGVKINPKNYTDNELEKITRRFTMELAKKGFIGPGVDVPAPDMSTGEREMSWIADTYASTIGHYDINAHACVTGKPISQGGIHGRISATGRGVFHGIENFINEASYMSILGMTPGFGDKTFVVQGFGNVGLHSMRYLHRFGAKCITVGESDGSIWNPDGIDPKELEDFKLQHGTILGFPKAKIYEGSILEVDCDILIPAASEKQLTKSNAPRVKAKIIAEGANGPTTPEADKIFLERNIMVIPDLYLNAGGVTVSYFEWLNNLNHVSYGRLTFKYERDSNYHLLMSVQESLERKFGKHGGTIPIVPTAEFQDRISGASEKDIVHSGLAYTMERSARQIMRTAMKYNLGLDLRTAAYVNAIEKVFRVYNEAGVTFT

Substance: GDH1 from bovine liver (glutamate dehydrogenase 1) (Bos taurus)
- Km: 840 ± 20 µM
